From US20250084176A1 (F STAR BETA, published 2025)
Substitutions are numbered along the chain they refer to.

What was measured:
[1] = target: human CD137, full length, on cells (human, UniProt Q07011 24-255); test: cell-based or functional assay
human CD40 = human CD40 (human, UniProt P25942 21-193); test: SPR (Biacore T200), receptor amine-coupled to CM5 chip
Method: (§1) The specificity of the anti-human CD137 Fcabs for human CD137 compared to other related TNFSFR family members was tested. 8 of the Fcabs were tested in mock mAb² (HeID1.3) format and measured by SPR in a Biacore T200 (GE Healthcare) by testing for binding to other human TNFRSF receptors: CD40, OX40 and GITR. Amine coupling (amine coupling kit, GE Healthcare, BR-1000-50) was used to coat human CD40, GITR and OX40 to approximately 1000 RU in Biacore CM5 chips (GE Healthcare, cat no 29149603). […] The chip was regenerated by injection of 10 mM glycine pH 2.5 for 12 s at 30 μl/min. Antibodies specific to the different TNFRSF members were used as positive controls to verify Biacore chip coating. Data was double reference subtracted and analysed using BIAevaluation 3.2 software.

human GITR = target: T1, human GITR (human, UniProt Q9Y5U5 26-161, limits assumed); test: as above
T1 sequence (looked up): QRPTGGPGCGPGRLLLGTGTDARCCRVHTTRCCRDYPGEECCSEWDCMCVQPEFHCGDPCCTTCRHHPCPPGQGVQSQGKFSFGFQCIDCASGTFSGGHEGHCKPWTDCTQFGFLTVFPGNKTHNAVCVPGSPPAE
Method: as §1

human OX40 = target: T2, human OX40 (human, UniProt P43489 29-216, limits assumed); test: as above
T2 sequence (looked up): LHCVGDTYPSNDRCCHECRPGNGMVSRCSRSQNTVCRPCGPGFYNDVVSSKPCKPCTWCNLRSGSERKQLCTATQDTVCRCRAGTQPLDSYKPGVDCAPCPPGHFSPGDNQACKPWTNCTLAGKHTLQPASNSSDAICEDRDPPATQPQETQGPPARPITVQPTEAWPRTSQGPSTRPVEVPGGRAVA
Method: as §1

hCD137-mFc-Avi [2] = target: T3, hCD137-mFc-Avi (human; mouse, UniProt Q07011 24-186, one biotin on the Avi sequence of each monomer (BirA); unbiotinylated in the SPR of Example 5.6); test: SPR (Biacore), mAb2 captured by anti-human Fab, antigen in solution, 1:1 Langmuir
T3 construct: Made in-house in HEK293-6E; also called human CD137-mFc-Avi; dimeric human CD137; not shown: mouse IgG2a Fc domain (mIgG2a Fc)
Method: (§2) An anti-human Fab capture antibody was immobilised on all four flow cells of a CM5 series S chip (GE Healthcare #BR-1005-30) to an average surface density of 6000 RU following the manufacturer's recommendations (GE Healthcare, human Fab capture Kit, #28958325). IEach mAb² was captured to approximately 150 RU by injecting a 3 μg/ml solution of mAb² diluted in HBS-EP+ buffer (GE Healthcare #BR1006-69) for 60 seconds at 30 μl/min. Then different concentrations of human, cyno or mouse CD137 antigen (unbiotinylated human, cyno or mouse CD137-mFc-Avi or human CD137-Avi-His) in HBS-EP+ buffer were flowed over the chip for 3 min at 60 μl/min and then allowed to dissociate for 10 minutes. After each antigen concentration the chip was regenerated by infecting 10 mM glycine pH 2.1 at a flow rate of 30 μl/min for 30 seconds. Buffer HBS-EP+ was injected before the highest concentration of antigen and after the lowest concentration of antigen for reference subtraction, and one of the concentrations at random was repeated twice. The binding kinetics were fit with a 1:1 Langmuir model to generate equilibrium binding constants (KD) for each sample. Data analysis was performed with BiaEvaluation software version 3.2.

cCD137-mFc-Avi = target: T4, cCD137-mFc-Avi (cynomolgus; mouse, one biotin on the Avi sequence of each monomer (BirA); unbiotinylated in the SPR of Example 5.6); test: as above
T4 construct: also called cyno CD137-mFc-Avi; dimeric cynomolgus CD137; not shown: mouse IgG2a Fc domain (mIgG2a Fc)
T4 chain: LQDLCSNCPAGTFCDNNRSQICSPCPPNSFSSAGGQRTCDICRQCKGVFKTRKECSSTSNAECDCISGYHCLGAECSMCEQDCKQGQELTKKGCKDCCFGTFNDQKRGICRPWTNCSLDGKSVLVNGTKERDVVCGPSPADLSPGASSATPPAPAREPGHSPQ
Method: as §2

hCD137-Avi-His = target: T5, hCD137-Avi-His (human, UniProt Q07011 24-186, single biotin on the Avi sequence (BirA); unbiotinylated in the SPR of Example 5.6); test: as above
T5 construct: also called human CD137-Avi-His; monomeric human CD137
Method: as §2

hCD137-mFc-Avi [3] = target: T3, hCD137-mFc-Avi; test: flow cytometry of the yeast-displayed clone, 10 nM dimeric human antigen

human CD40, sequence (P25942 21-193 limits assumed): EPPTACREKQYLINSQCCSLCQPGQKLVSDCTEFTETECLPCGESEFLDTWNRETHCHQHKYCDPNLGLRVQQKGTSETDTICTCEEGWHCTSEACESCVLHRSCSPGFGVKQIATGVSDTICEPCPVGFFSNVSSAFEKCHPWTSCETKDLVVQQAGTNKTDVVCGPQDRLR
T3 sequence (Q07011 24-186): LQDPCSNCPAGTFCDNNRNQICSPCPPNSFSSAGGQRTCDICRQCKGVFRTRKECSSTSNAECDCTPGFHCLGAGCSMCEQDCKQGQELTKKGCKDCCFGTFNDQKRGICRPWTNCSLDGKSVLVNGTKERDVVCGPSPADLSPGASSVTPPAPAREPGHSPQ
human CD137, full length, on cells, sequence (Q07011 24-255): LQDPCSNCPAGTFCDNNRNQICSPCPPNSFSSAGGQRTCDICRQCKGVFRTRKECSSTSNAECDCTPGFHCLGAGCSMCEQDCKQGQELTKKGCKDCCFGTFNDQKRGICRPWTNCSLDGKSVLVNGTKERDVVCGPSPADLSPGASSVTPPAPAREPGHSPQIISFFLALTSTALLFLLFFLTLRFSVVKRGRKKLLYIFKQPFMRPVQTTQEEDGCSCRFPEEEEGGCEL
T5 sequence (Q07011 24-186): as the sequence (Q07011 24-186) above

B1: FS22-053-008/HelD1.3 (bispecific antibody, human IgG1, kappa)
heavy: QVQLQESGPGLVRPSQTLSLTCTVSGSTFSGYGVNWVRQPPGRGLEWIGMIWGDGNTDYNSALKSRVTMLVDTSKNQFSLRLSSVTAADTAVYYCARERDYRLDYWGQGSLVTVSSASTKGPSVFPLAPSSKSTSGGTAALGCLVKDYFPEPVTVSWNSGALTSGVHTFPAVLQSSGLYSLSSVVTVPSSSLGTQTYICNVNHKPSNTKVDKKVEPKSCDKTHTCPPCPAPELLGGPSVFLFPPKPKDTLMISRTPEVTCVVVDVSHEDPEVKFNWYVDGVEVHNAKTKPREEQYNSTYRVVSVLTVLHQDWLNGKEYKCKVSNKALPAPIEKTISKAKGQPREPQVYTLPPSRDELNPPYLFSNQVSLTCLVKGFYPSDIAVEWESNGQPENNYKTTPPVLDSDGSFFLYSKLTVDYWRWLEGNVFSCSVMHEALHNHYTQKSLSLSPG
light: DIQMTQSPASLSASVGETVTITCRASGNIHNYLAWYQQKQGKSPQLLVYNAKTLADGVPSRFSGSGSGTQYSLKINSLQPEDFGSYYCQHFWSTPRTFGGGTKLEIKRTVAAPSVFIFPPSDEQLKSGTASVVCLLNNFYPREAKVQWKVDNALQSGNSQESVTEQDSKDSTYSLSSTLTLSKADYEKHKVYACEVTHQGLSSPVTKSFNRGEC
notes: Mock mAb^2, IgG1 without LALA; also called FS22-053-008/HeID1.3
NF-kB signalling, HEK.FRT.luc.hCD137, +XL (EC50 nM) [1]: 26.3 nM
binding result (human CD40): no binding (tested: starting at 1 µM)
binding result (human GITR): no binding (tested: starting at 1 µM)
binding result (human OX40): no binding (tested: starting at 1 µM)
Kd (hCD137-mFc-Avi [2]): 4.2 nM
Kd (cCD137-mFc-Avi): 0.9 nM
Human monomeric CD137 KD fold difference relative to human dimeric KD (hCD137-Avi-His): 170 fold

B2: FS22-053-009/HelD1.3 (bispecific antibody, human IgG1, kappa)
heavy: B1 heavy with D417E, Y418H, W419T, E423D
light: B1 light
notes: Mock mAb^2, IgG1 without LALA; also called FS22-053-009/HeID1.3
NF-kB signalling, HEK.FRT.luc.hCD137, +XL (EC50 nM) [1]: 64.6 nM
binding result (human CD40): no binding (tested: starting at 1 µM)
binding result (human GITR): no binding (tested: starting at 1 µM)
binding result (human OX40): no binding (tested: starting at 1 µM)

B3: FS22-053-010/HelD1.3 (bispecific antibody, human IgG1, kappa)
heavy: B1 heavy with W419M, E423D
light: B1 light
notes: Mock mAb^2, IgG1 without LALA; also called FS22-053-010/HeID1.3
NF-kB signalling, HEK.FRT.luc.hCD137, +XL (EC50 nM) [1]: 47.5 nM
binding result (human CD40): no binding (tested: starting at 1 µM)
binding result (human GITR): no binding (tested: starting at 1 µM)
binding result (human OX40): no binding (tested: starting at 1 µM)

B4: FS22-053-011/HelD1.3 (bispecific antibody, human IgG1, kappa)
heavy: B1 heavy with L422T, E423D
light: B1 light
notes: Mock mAb^2, IgG1 without LALA; also called FS22-053-011/HeID1.3
NF-kB signalling, HEK.FRT.luc.hCD137, +XL (EC50 nM) [1]: 32.8 nM
binding result (human CD40): no binding (tested: starting at 1 µM)
binding result (human GITR): no binding (tested: starting at 1 µM)
binding result (human OX40): no binding (tested: starting at 1 µM)
Kd (hCD137-mFc-Avi [2]): 5.5 nM
Kd (cCD137-mFc-Avi): 1.3 nM
Human monomeric CD137 KD fold difference relative to human dimeric KD (hCD137-Avi-His): > 200 fold

B5: FS22-053-012/HelD1.3 (bispecific antibody, human IgG1, kappa)
heavy: B1 heavy with Y418H, W419M
light: B1 light
notes: Mock mAb^2, IgG1 without LALA; also called FS22-053-012/HeID1.3
NF-kB signalling, HEK.FRT.luc.hCD137, +XL (EC50 nM) [1]: 119 nM
binding result (human CD40): no binding (tested: starting at 1 µM)
binding result (human GITR): no binding (tested: starting at 1 µM)
binding result (human OX40): no binding (tested: starting at 1 µM)

B6: FS22-172-002/HelD1.3 (bispecific antibody, human IgG1, kappa)
heavy: B1 heavy with N358P, P359F, P360Q, Y361M, L362P, F363P, S364Y, D417G, Y418A, W419D
light: B1 light
NF-kB signalling, HEK.FRT.luc.hCD137, +XL (EC50 nM) [1]: 124 nM

B7: FS22-172-006/HelD1.3 (bispecific antibody, human IgG1, kappa)
heavy: B1 heavy with N358R, P359K, P360Y, L362P, F363P, S364Y, V367L, D417G, Y418A, W419D
light: B1 light
NF-kB signalling, HEK.FRT.luc.hCD137, +XL (EC50 nM) [1]: 382 nM

B8: FS22-172-004, yeast-displayed clone (designed binder)
chain: GQPREPQVYTLPPSRDELNYIYPPYNQVSLTCLVKGFYPSDIAVEWESNGQPENNYKTTPPVLDSDGSFFLYSKLTVGADRWLEGNVFSCSVMHEALHNHYTQKSLSLSPG
% APC positive cells (hCD137-mFc-Avi [3]): > 10%

B9: FS22-053-008, yeast-displayed clone (designed binder)
chain: B8 chain with Y20P, I21P, P23L, P24F, Y25S, G78D, A79Y, D80W
% APC positive cells (hCD137-mFc-Avi [3]): > 30%

B10: FS22-053-009, yeast-displayed clone (designed binder)
chain: B8 chain with Y20P, I21P, P23L, P24F, Y25S, G78E, A79H, D80T, E84D
% APC positive cells (hCD137-mFc-Avi [3]): > 30%

B11: FS22-053-010, yeast-displayed clone (designed binder)
chain: B8 chain with Y20P, I21P, P23L, P24F, Y25S, G78D, A79Y, D80M, E84D
% APC positive cells (hCD137-mFc-Avi [3]): > 30%

B12: FS22-053-011, yeast-displayed clone (designed binder)
chain: B8 chain with Y20P, I21P, P23L, P24F, Y25S, G78D, A79Y, D80W, L83T, E84D
% APC positive cells (hCD137-mFc-Avi [3]): > 30%

B13: FS22-053-012, yeast-displayed clone (designed binder)
chain: B8 chain with Y20P, I21P, P23L, P24F, Y25S, G78D, A79H, D80M
% APC positive cells (hCD137-mFc-Avi [3]): > 30%

B14: FS22-172-001, yeast-displayed clone (designed binder)
chain: B8 chain with N19P, Y20F, I21V, Y22M
% APC positive cells (hCD137-mFc-Avi [3]): > 10%

B15: FS22-172-002, yeast-displayed clone (designed binder)
chain: B8 chain with N19P, Y20F, I21Q, Y22M
% APC positive cells (hCD137-mFc-Avi [3]): > 10%

B16: FS22-172-003, yeast-displayed clone (designed binder)
chain: B8 chain with N19P, Y22I
% APC positive cells (hCD137-mFc-Avi [3]): > 10%

B17: FS22-172-005, yeast-displayed clone (designed binder)
chain: B8 chain with N19Q, Y20Q, I21V
% APC positive cells (hCD137-mFc-Avi [3]): > 10%

B18: FS22-172-006, yeast-displayed clone (designed binder)
chain: B8 chain with N19R, Y20K, I21Y, V28L
% APC positive cells (hCD137-mFc-Avi [3]): > 10%
